# Patent publication US20160009789A1 (published 2016)
# Assays:
# HXBc2 = assay: ELISA
# [1] = molecular target: gp41 MPER peptide (residues 657 to 669 of gp41) linked to a C-terminal C9 tag; assay: SPR
Binder,EC50 (HXBc2),Kd [1]
"HC+gLC (antibody, V domains shown) VH: QVQLVQSGGQMKKPGESMRISCRASGYEFIDCTLNWIRLAPGKRPEWMGWLKPRGGAVNYARPLQGRVTMTRDVYSDTAFLELRSLTVDDTAVYFCTRGKNCDYNWDFEHWGRGTPVIVSS VL: EIVLTQSPATLSLSPGERATLSCRASQYSVSSYLAWYQQKPGQAPRLLIYDASNRATGIPARFSGSGSGRDFTLTISSLEPEDFAVYYCQQFGQGTKLEIK",2.14 µg/mL,
"gHC+gLC (antibody, V domains shown) VH: not shown VL: EIVLTQSPATLSLSPGERATLSCRASQYSVSSYLAWYQQKPGQAPRLLIYDASNRATGIPARFSGSGSGRDFTLTISSLEPEDFAVYYCQQFGQGTKLEIK",> 50 µg/mL,
"gHC+LC (antibody, V domains shown) VH: not shown VL: EIVLTQSPGTLSLSPGETAIISCRTSQYGSLAWYQQRPGQAPRLVIYSGSTRAAGIPDRFSGSRWGPDYNLTISNLESGDFGVYYCQQYEFFGQGTKVQVDI",21.4 µg/mL,
"2F5 wild-type IgG (antibody, V domains shown) VH: RITLKESGPPLVKPTQTLTLTCSFSGFSLSDFGVGVGWIRQPPGKALEWLAIIYSDDDKRYSPSLNTRLTITKDTSKNQVVLVMTRVSPVDTATYFCAHRRGPTTLFGVPIARGPVNAMDVWGQGITVTISS VL: ALQLTQSPSSLSASVGDRITITCRASQGVTSALAWYRQKPGSPPQLLIYDASSLESGVPSRFSGSGSGTEFTLTISTLRPEDFATYYCQQLHFYPHTFGGGTRVDVRR",,9.5 nM
